Measurements published in patent US20260242478A1 (published 2026).
Where no end group is shown, it is not given here.

B1: Phage-485 (peptide)
peptide: YCEGHSQENIWKCL
B2: Phage-482 (peptide)
peptide: YCEGHAPEYIAKCL
B3: Phage-484 (peptide)
peptide: YCEGHAPEYIWKCL
B4: Phage-483 (peptide)
peptide: YCEGHAPEYIRKCL
B5: Phage-481 (peptide)
peptide: YCEGHLPEYIEKCL
notes: also called Peptide-120
B6: Phage-480 (peptide)
peptide: YCEGHEGIYFWKCL
B7: Phage-478 (peptide)
peptide: YCEGHSPEYILKCL
B8: Phage-479 (peptide)
peptide: YCEGHRPEYILKCL
B9: Phage-506 (peptide, not shown: large carriers)
peptide: YCAGHLPEYMDKCL
notes: Clonal phage supernatant of the Peptide-87 optimisation library
B10: Phage-502 (peptide, not shown: large carriers)
peptide: YCDGHSPEYMWKCL
notes: as for B9
B11: Phage-508 (peptide, not shown: large carriers)
peptide: YCAGHLPQYMAKCL
notes: as for B9
B12: Phage-503 (peptide, not shown: large carriers)
peptide: YCDGHLPEYMEKCL
notes: as for B9
B13: Phage-505 (peptide, not shown: large carriers)
peptide: YCDGHLPEYMNKCL
notes: as for B9
B14: Phage-500 (peptide, not shown: large carriers)
peptide: YCDGHLPQYMEKCL
notes: as for B9
B15: Phage-504 (peptide, not shown: large carriers)
peptide: YCEGHLPQYMWKCL
notes: as for B9
B16: Phage-512 (peptide, not shown: large carriers)
peptide: YCEGHLPQYMQKCL
modifications: cysteine pairing not given here; also: displayed on phage as fusion to pIII, linker, pIII sequence and order not given here
notes: as for B9
B17: Phage-507 (peptide, not shown: large carriers)
peptide: YCDGHSAEHMAKCL
notes: as for B9
B18: Phage-501 (peptide, not shown: large carriers)
peptide: YCAGHAPEYMEKCL
notes: as for B9

molecular target: T1, anti-CD28 Fab (SEQ ID NOs: 696, 697); assay: phage ELISA; biotinylated anti-CD28 Fab on neutravidin plate, clonal phage supernatant, anti-M13 HRP detection;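 also: crude supernatants of single phage clones picked after panning were screened for binding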
T1 construct: In the phage ELISA the Fab was biotinylated and captured on neutravidin coated plates
T1 sequence (VH, as listed by the source, chain 1 of 2): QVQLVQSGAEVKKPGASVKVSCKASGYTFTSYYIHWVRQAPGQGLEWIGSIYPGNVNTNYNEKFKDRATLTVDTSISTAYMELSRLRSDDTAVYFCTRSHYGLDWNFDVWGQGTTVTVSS
T1 sequence (VL, as listed by the source, chain 2 of 2): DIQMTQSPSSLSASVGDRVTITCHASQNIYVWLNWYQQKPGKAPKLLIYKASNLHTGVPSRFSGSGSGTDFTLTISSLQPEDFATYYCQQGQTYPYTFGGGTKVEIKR

| Binder | Phage binding ELISA, Anti-CD28 Fab (SEQ ID NOs: 696, 697) signal |
| --- | --- |
| B1 | 1.41 |
| B2 | 2.15 |
| B3 | 1.63 |
| B4 | 1.63 |
| B5 | 2.06 |
| B6 | 2.07 |
| B7 | 1.75 |
| B8 | 1.27 |

molecular target: Anti-CD28 Fab (SEQ ID NOs: 696, 697); assay: phage binding ELISA; biotinylated anti-CD28 Fab captured on neutravidin plate, clonal phage supernatant, anti-M13 HRP detection
Sequence (VH, as listed by the source, chain 1 of 2): as the sequence (VH, as listed by the source, chain 1 of 2) above
Sequence (VL, as listed by the source, chain 2 of 2): as the sequence (VL, as listed by the source, chain 2 of 2) above
Experimental: (§1) After panning, phage infected bacteria were plated out and colonies picked into 96 well blocks. Clonal phage was then amplified and separated from bacterial cells via centrifugation.
(§2) Clonal phage were harvested as crude supematants and screened via standard ELISAs. […] Prior to the addition of clonal phage, wells were incubated with blocking buffer and CD28 antigen or blocking buffer alone. Without washing or aspirating, clonal phage supematants were then added to the wells and incubated for a short time. Wells were then washed followed by detection of bound phage using a horse radish conjugated anti-M13 antibody. Clonal phage of interest were then sent for sequence analysis.

| Binder | Anti-CD28 Fab signal (phage binding ELISA) |
| --- | --- |
| B9 | 2.42 |
| B10 | 2.44 |
| B11 | 2.41 |
| B12 | 2.44 |
| B13 | 2.43 |
| B14 | 2.47 |
| B15 | 2.44 |
| B16 | 2.39 |
| B17 | 2.41 |
| B18 | 2.45 |

molecular target: T1, anti-CD28 Fab (SEQ ID NOs: 696, 697); assay: phage ELISA; biotinylated anti-CD28 Fab on neutravidin plate, wells pre-incubated with CD28 antigen as competitor, anti-M13 HRP detection
Experimental: as §1, §2

| Binder | Phage binding ELISA, Anti-CD28 Fab signal in the presence of CD28 |
| --- | --- |
| B1 | 0.07 |
| B2 | 0.09 |
| B3 | 0.07 |
| B4 | 0.08 |
| B5 | 0.08 |
| B6 | 0.06 |
| B7 | 0.06 |
| B8 | 0.06 |

molecular target: Anti-CD28 Fab (SEQ ID NOs: 696, 697); assay: phage binding ELISA on captured anti-CD28 Fab pre-incubated with CD28 antigen as competitor
Experimental: as §1, §2

| Binder | Anti-CD28 Fab signal in the presence of CD28 (phage binding ELISA) |
| --- | --- |
| B9 | 0.12 |
| B10 | 0.09 |
| B11 | 0.17 |
| B12 | 0.1 |
| B13 | 0.13 |
| B14 | 0.11 |
| B15 | 0.17 |
| B16 | 0.12 |
| B17 | 0.08 |
| B18 | 0.09 |
